Measurements from the supplement of paper PMC7125110.
± gives the standard error. Variants at the floor of the assay were thinned out.

B1: glmS ribozyme (parent)
chain: AUAAAAGCGCCAGAACUACAGAAAUGUAGUUGACGAGGAGGAGGUUUAUCGAAUUUUCGGCGGAUGCCUCCAAA

What was measured:
Details in all cases: with glucosamine-6-phosphate
glucosamine-6-phosphate [1] = variants of: B1; experiment: self-cleavage kobs at 640 uM GlcN6P; higher = faster cleavage; RNA array
In short: (§1)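 Ribozyme variants carrying barcodes were transcribed in situ on sequenced MiSeq chips by E. coli RNA polymerase and tracked at 37 °C with a hybridised Cy3 probe. They were exposed to 40 μM to 10 mM glucosamine-6-phosphate in HEPES/KCl/Mg(OAc)2 buffer. kobs came from exponential decay fits of normalised per-tile medians, and kcat and KM from weighted Michaelis–Menten fits.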

glucosamine-6-phosphate [2] = variants of: B1; experiment: self-cleavage kobs at 2500 uM GlcN6P; higher = faster cleavage; RNA array
In short: as §1

glucosamine-6-phosphate [3] = variants of: B1; experiment: self-cleavage kobs at 10000 uM GlcN6P; higher = faster cleavage; RNA array
In short: as §1

Row | Variant | self-cleavage kobs at 640 uM GlcN6P (glucosamine-6-phosphate [1]) [s⁻¹] | self-cleavage kobs at 2500 uM GlcN6P (glucosamine-6-phosphate [2]) [s⁻¹] | self-cleavage kobs at 10000 uM GlcN6P (glucosamine-6-phosphate [3]) [s⁻¹]
1 | U31G G37C G38C | < 1e-05 | < 1e-05 | –
2 | G13A A42C G44U | < 1e-05 | – | –
3 | A33U C34U C70G | 0.00168 ± 0.00079 | – | –
4 | A14U G38A A53G | < 1e-05 | – | –
5 | A33U U57A C58U C70A C71G | 9.76e-05 ± 2.5e-05 | – | –
6 | C8G G59U G66U | < 1e-05 | – | –
7 | G29A G38C C70A | 6.65e-05 ± 3.1e-05 | – | –
8 | G7C A12U G41U | < 1e-05 | < 1e-05 | –
9 | G35A G38U A42C U55C | < 1e-05 | – | –
10 | G35C G37U A64G C68U | < 1e-05 | – | –
11 | G43A U47A A53C G59C | < 1e-05 | < 1e-05 | –
12 | A6C U47C U54G | < 1e-05 | – | –
13 | G9A A12U U49A | < 1e-05 | < 1e-05 | –
14 | C10U U47G G51U U57C C58G A64U | < 1e-05 | – | –
15 | C58G C68A U69G | 0.000107 ± 3.5e-05 | 5.37e-05 ± 2.4e-05 | –
16 | C8A G35U C70G | 0.000526 ± 0.0002 | – | 7.27e-05 ± 2.4e-05
17 | G66C C68U C70U | 0.000337 ± 9.2e-05 | – | –
18 | C8U A15C G35C C68U | < 1e-05 | – | –
19 | A6U A39C G60A | < 1e-05 | – | –
20 | G13U C50G C67G | 0.000305 ± 0.00014 | 7.52e-05 ± 1.5e-05 | –
21 | C10A G51C A52U C70U | < 1e-05 | – | –
22 | C8U A15C A33U G37C C71G | 5.18e-05 ± 2.5e-05 | – | –
23 | A12U C67G C71A | < 1e-05 | – | –
24 | A15C G35U G41A U65C C68A | < 1e-05 | < 1e-05 | –

Row | Variant | self-cleavage kobs at 640 uM GlcN6P (glucosamine-6-phosphate [1]) [s⁻¹] | self-cleavage kobs at 2500 uM GlcN6P (glucosamine-6-phosphate [2]) [s⁻¹] | self-cleavage kobs at 10000 uM GlcN6P (glucosamine-6-phosphate [3]) [s⁻¹]
25 | C10G C11A C16A C58G C71G | 0.00176 ± 0.00062 | 0.000241 ± 0.0001 | –
26 | A48G C50U A52U C70G | 4.03e-05 ± 2e-05 | – | –
27 | G29U A33U G43C G60C G62U C71G | < 1e-05 | < 1e-05 | –
28 | A36U G38A A52U C67G | 4.67e-05 ± 1.8e-05 | 4.17e-05 ± 2.1e-05 | –
29 | G38A G40C A42C A72U | < 1e-05 | – | –
30 | A15U U46G A53U C67U | 6.64e-05 ± 1.4e-05 | – | –
31 | C11G A53U U55G C67G | 0.000112 ± 4.8e-05 | – | –
32 | G35A G40U G62U | < 1e-05 | < 1e-05 | –
33 | C16G U45A C58A | 6.95e-05 ± 1.6e-05 | 0.000197 ± 3.9e-05 | –
34 | G60U G62A C67U | < 1e-05 | – | –
35 | G7U G40A G59U | < 1e-05 | – | –
36 | G35U U57A | < 1e-05 | – | < 1e-05
37 | C50G U65G U69A | 0.000101 ± 2.1e-05 | – | –
38 | A12U G38C A39C | < 1e-05 | – | < 1e-05
39 | A15G G38U | < 1e-05 | – | –
40 | A15U G41C G44U A48U U49A G51U C67U | < 1e-05 | – | –
41 | C8U G32U C68A | < 1e-05 | – | –
42 | A12U A48C | 0.000142 ± 2.1e-05 | 0.000341 ± 5.1e-05 | –
43 | G29C G40A G44U A64G | < 1e-05 | < 1e-05 | –
44 | G40U C50U G63A C67A | < 1e-05 | < 1e-05 | –
45 | G7U G41C C58A | < 1e-05 | < 1e-05 | –
46 | C10U G21U G62A | < 1e-05 | – | < 1e-05
47 | A6C U31C C70A | 7.34e-05 ± 3e-05 | – | –
48 | C10G G13C A39G | < 1e-05 | < 1e-05 | –

Row | Variant | self-cleavage kobs at 640 uM GlcN6P (glucosamine-6-phosphate [1]) [s⁻¹] | self-cleavage kobs at 2500 uM GlcN6P (glucosamine-6-phosphate [2]) [s⁻¹] | self-cleavage kobs at 10000 uM GlcN6P (glucosamine-6-phosphate [3]) [s⁻¹]
49 | C11G A39C | < 1e-05 | < 1e-05 | < 1e-05
50 | C8A C11U A36G | < 1e-05 | < 1e-05 | –
51 | G37U G59U G63A | < 1e-05 | < 1e-05 | –
52 | G9C A39U A42C U56G | < 1e-05 | – | –
53 | G7A G38C C58A | < 1e-05 | < 1e-05 | –
54 | C61U G66C | < 1e-05 | < 1e-05 | –
55 | U30G C34A C68A | < 1e-05 | – | –
56 | A6C U31C G62A | < 1e-05 | – | –
57 | A15G G29U U55G A64G | 0.000144 ± 2.7e-05 | – | –
58 | A42U U69C | 0.0106 ± 0.0031 | 0.00357 ± 0.0013 | –
59 | A6U C10U G32C | < 1e-05 | – | –
60 | A15G U45A A53G | 0.0131 ± 0.0027 | – | –
61 | G32C G41A U46G C71U | < 1e-05 | < 1e-05 | –
62 | A12U C50U G59U | < 1e-05 | < 1e-05 | < 1e-05
63 | C8G G38U C68A | < 1e-05 | – | –
64 | U55G G63U U65G | < 1e-05 | < 1e-05 | –
65 | G37U G38C U49G U56G | < 1e-05 | – | –
66 | U30C C50G C61G | 0.000327 ± 0.00012 | – | –
67 | U31C A39C G51C | < 1e-05 | – | –
68 | G29C G37C C68G | 7.66e-05 ± 3.4e-05 | – | –
69 | A14U G62U U69A | < 1e-05 | – | –
70 | C8G A36G A39U G43U | < 1e-05 | < 1e-05 | –
71 | U31G G38U A53G C68A C71A | 0.000204 ± 7.6e-05 | – | –
